Experimental findings from publication PMC5113206 (RNA, 2016) are described below.

What all share (assay): pull-down
In one assay the target is T1, GST-DHX29 (248–594) (UniProt Q7Z478 248-594).
T1 sequence (looked up): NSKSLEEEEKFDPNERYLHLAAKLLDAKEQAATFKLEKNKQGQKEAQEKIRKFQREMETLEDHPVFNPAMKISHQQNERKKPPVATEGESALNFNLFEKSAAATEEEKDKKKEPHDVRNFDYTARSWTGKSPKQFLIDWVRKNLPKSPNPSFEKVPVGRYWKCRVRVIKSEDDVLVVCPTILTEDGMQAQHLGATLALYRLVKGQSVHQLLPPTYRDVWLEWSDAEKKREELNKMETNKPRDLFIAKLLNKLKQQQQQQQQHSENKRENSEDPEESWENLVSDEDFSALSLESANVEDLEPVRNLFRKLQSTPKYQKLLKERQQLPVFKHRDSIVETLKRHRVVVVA

A further assay addresses GST-eIF3a (783–1382) (human, UniProt Q14152 783-1382).
The target in a further assay is T2, DHX29 (FL), His-tagged (UniProt Q7Z478 1-1369).
T2 sequence (looked up): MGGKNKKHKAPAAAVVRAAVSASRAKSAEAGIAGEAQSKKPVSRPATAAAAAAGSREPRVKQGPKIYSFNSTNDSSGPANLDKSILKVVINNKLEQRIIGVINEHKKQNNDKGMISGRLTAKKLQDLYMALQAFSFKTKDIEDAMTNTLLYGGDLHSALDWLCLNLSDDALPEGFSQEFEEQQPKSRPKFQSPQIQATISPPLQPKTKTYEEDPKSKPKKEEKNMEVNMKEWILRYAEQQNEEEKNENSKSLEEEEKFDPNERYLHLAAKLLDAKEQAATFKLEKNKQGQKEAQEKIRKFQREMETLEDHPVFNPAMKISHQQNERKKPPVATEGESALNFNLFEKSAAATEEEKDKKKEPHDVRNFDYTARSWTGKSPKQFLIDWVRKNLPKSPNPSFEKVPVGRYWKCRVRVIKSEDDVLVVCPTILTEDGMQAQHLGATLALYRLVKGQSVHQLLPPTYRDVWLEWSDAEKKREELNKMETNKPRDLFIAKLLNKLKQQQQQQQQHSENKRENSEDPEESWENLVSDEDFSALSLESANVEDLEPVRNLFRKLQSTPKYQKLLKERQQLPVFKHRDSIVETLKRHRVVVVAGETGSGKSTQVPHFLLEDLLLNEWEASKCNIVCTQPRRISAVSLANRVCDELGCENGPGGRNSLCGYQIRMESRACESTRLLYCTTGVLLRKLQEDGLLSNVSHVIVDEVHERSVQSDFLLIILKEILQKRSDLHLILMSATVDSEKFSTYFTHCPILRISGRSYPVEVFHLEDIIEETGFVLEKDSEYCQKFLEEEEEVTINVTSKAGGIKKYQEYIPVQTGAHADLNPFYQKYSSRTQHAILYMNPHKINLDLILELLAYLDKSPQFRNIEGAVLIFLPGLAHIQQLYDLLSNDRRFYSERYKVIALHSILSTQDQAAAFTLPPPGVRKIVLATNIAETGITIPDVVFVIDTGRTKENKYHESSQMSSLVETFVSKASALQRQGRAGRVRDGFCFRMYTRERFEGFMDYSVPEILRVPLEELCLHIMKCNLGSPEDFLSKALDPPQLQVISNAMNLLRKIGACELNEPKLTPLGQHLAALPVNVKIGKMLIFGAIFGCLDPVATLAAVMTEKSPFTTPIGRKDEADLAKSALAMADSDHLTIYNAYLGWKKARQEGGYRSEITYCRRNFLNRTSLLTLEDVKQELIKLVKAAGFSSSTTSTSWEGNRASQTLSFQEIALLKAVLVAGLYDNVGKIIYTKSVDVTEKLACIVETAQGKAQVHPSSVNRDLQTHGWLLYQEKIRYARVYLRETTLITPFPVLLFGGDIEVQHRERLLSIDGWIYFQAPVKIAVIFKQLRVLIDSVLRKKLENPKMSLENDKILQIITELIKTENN

GST-eIF3a (783–1382), sequence (Q14152 783-1382): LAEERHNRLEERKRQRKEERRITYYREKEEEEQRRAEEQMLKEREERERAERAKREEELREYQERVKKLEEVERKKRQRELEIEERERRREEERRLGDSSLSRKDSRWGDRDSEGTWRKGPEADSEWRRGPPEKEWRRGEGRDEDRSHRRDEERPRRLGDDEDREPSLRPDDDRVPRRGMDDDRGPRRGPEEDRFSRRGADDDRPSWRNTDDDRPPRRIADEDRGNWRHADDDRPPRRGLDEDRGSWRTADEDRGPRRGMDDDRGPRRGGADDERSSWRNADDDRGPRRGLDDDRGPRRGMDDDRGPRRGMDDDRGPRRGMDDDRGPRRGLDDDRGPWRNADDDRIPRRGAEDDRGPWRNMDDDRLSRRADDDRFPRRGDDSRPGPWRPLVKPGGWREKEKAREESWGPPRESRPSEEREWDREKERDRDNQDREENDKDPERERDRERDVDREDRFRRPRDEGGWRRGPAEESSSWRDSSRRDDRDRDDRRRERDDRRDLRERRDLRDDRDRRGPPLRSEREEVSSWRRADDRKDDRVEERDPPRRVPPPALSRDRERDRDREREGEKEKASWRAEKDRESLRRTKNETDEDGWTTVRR

B1: eIF3b (1–300), His-tagged (domain or fragment, murine, UniProt Q8JZQ9 1-300, looked up)
chain: MQDAENVAVPEAAEERAEPARQQPASESPPTDEAAGSGGSEVGQTEDAEEDAEAGPEPEVRAKPAAQSEEETATSPAASPTPQSAERSPSQEPSAPGKAEAVGEQARGHPSAGAEEEGGSDGSAAEAEPRALENGEADEPSFSDPEDFVDDVSEEELLGDVLKDRPQEADGIDSVIVVDNVPQVGPDRLEKLKNVIHKIFSKFGKIINDYYPEEDGKTKGYIFLEYASPAHAVDAVKNADGYKLDKQHTFRVNLFTDFDKYMTISDEWDIPEKQPFKDLGNLRYWLEEAECRDQYSVIFE
In the case of B1, the binding result with GST-DHX29 (248–594) is “binds”.

B2: DHX29 (1–247), His-tagged (domain or fragment, UniProt Q7Z478 1-247, looked up)
chain: MGGKNKKHKAPAAAVVRAAVSASRAKSAEAGIAGEAQSKKPVSRPATAAAAAAGSREPRVKQGPKIYSFNSTNDSSGPANLDKSILKVVINNKLEQRIIGVINEHKKQNNDKGMISGRLTAKKLQDLYMALQAFSFKTKDIEDAMTNTLLYGGDLHSALDWLCLNLSDDALPEGFSQEFEEQQPKSRPKFQSPQIQATISPPLQPKTKTYEEDPKSKPKKEEKNMEVNMKEWILRYAEQQNEEEKNE
Regarding B2, in the assay with GST-eIF3a (783–1382), the binding result was “binds”.

B3: GST-eIF3b (161–264) (domain or fragment, murine, UniProt Q8JZQ9 161-264, looked up)
chain: VLKDRPQEADGIDSVIVVDNVPQVGPDRLEKLKNVIHKIFSKFGKIINDYYPEEDGKTKGYIFLEYASPAHAVDAVKNADGYKLDKQHTFRVNLFTDFDKYMTI
As to B3, in the assay with DHX29 (FL), His-tagged, the binding result is “binds”.
